Experimental data published in patent US12072338B2, “Pharmaceutical peptides for the treatment of inflammatory diseases” (PROTAGONISTS LTD., priority 2007, dated 2024).
Entries after “also recorded” stand apart in the source; their conditions may differ. Like-named read-outs stand apart in the source and are kept apart here. Ends that are not written are not given here.

Tests used:
[1] = test system: healthy, non-disease-induced rats; experiment: Effect on healthy, non-disease-induced rats; assay type: in vivo, rat; conditions: 30 ug/injection IP on 12 consecutive days
Description: P15 was injected IP (30 ug/injection) on 12 consecutive days to determine if this anti-inflammatory peptide had any effect at a therapeutic dose on healthy, non-disease-induced rats.

[2] = test system: IL-8; experiment: Micro-array analysis of chemokine binding peptides: IL-8; conditions: limit = start of the upper 75% of that peptide's response range
Sequence of IL-8 (P10145 28-99 limits assumed): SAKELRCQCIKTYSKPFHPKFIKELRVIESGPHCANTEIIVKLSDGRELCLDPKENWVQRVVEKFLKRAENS
In short: (§1)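 Spot CK 25/50 μg/ml, 5 repeats; block 1 h RT; recombinant phage 10^7 pfu/μl, 1 h RT, agitation; anti-M13 mAb 45 min RT; Cy3 GAM IgG; scan, RF vs CK conc.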

[3] = target: T1, Mig (Homo sapiens, UniProt Q07325); experiment: Micro-array analysis of chemokine binding peptides: Mig; conditions: limit = start of the upper 75% of that peptide's response range
T1 construct: purchased 300-26
T1 sequence (Q07325 23-125): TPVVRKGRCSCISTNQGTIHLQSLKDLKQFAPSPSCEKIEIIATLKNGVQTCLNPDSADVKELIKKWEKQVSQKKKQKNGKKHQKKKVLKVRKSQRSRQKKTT
In short: as §1

[4] = target: T2, I-309 (Homo sapiens, UniProt P22362); experiment: Micro-array analysis of chemokine binding peptides: I-309; conditions: limit = start of the upper 75% of that peptide's response range
T2 construct: purchased 300-37
T2 sequence (P22362 24-96): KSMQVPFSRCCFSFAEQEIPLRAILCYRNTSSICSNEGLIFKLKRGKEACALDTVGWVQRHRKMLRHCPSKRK
In short: as §1

[5] = target: T3, MCP-1 (Homo sapiens, UniProt P13500); experiment: Micro-array analysis of chemokine binding peptides: MCP-1; conditions: limit = start of the upper 75% of that peptide's response range
T3 construct: purchased 300-04
T3 sequence (P13500 24-99): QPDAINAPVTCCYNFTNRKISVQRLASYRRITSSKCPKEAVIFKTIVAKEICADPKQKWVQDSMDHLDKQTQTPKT
Description: (§2) (1) Printing: Chemokine (CK) solution (in water) was serially diluted with Print Reagent (GenTel BioSurfaces USA) to final concentrations of 50 μg and 25 μg/ml. BSA/BSA-Biotin control solutions (in water) were diluted with Print Reagent to 100 μg/ml. Amplified stock of M13 phage control (M13KEgIII Cloning Vector, New England Biolabs, Cat.No.E8101S) was stored in Tris Buffered Saline (TBS; pH7.5, 4° C.) and diluted with Print Reagent to the working titre (10^8 pfu/μl). An automated spotting robot (16 pin print tool, 0.4 mm head; BioRobotics, UK) was used to print the CK/BSA control/M13 control, 5 repeats per sample (CK 25 μg/ml and 50 μg/ml; BSA 100 μg/ml; M13 20 μl), on PATH Protein Microarray Slides (GenTel, Prod.No. 2-1005/-1025) at […], and 50-70% relative humidity. Printed micro-array slides were stored at Room Temperature (RT) or 4° C. for at least 24 h before use.
(§3) (2) Blocking: Block Buffer (500 μl/partition; PATHblock, GenTel, Prod.No. 2-1014) was applied to the slide for 1 hour at room temp (RT). After removal of Block Buffer, the slide was air dried for 25 minutes;
(§4) (3) Phage Presented Peptide Binding: Amplified recombinant phage stock was stored in TBS and diluted with Wash Buffer to working titer (10^7 pfu/μl). Recombinant phage suspension (300 μl) was applied per partition and incubated at RT for 1 hour with gentle agitation.
(§5) (4) First Washing: The slides were washed twice with Wash Buffer 300 μl/partition).
(§6) (5) Primary Antibody (Ab) Labeling: The slides were incubated with the Primary Ab (1 mg/ml diluted ×2500 (Wash Reagent), 300 μl; Mouse Anti-M13 monoclonal Ab; Amersham Biosciences, UK; Product Code 27-9420-01) for 45 minutes at RT.
(§7) (6) Second Washing: The slides were washed twice with Wash Buffer (300 μl/partition).
(§8) (7) Secondary Ab Labeling: The slides were incubated with Secondary Ab (1.5 mg/ml diluted ×5000 (Wash Reagent), 300 μl; Cy3-conjugated AffiniPure Goat Anti-Mouse IgG; Jackson ImmunoReserch Labs, USA; Product Code 115-165-062).
(§9) (8) Third Washing: The slides were washed twice with Wash Buffer (300 μl/partition).
(§10) (9) Rinse: the slides were rinsed twice with Rinse Buffer (PATHrinse, GenTel, Prod.No. 2-1018) then dried well.
(§11) (10) Scanning: The peptide-bound, labeled slide was scanned (Laser Intensity 80%, Gain 80%, Resolution 10 μm) with a ScanArray Life Scanner (Packard BioChip Technologies, USA).
(§12) (11) Analysis: Quantitative analysis of micro-array was performed by the SpotReader program of Niles Scientific (USA) and presented as Relative Fluorescence (RF) as a function of CK concentration. Micro-array readout (Cy3 fluorescence) was quantified to determine the relative binding affinities of a CBP for the CKs and by inference, the specificity of the CBP for binding to a CK.

[6] = target: T4, MCP-4 (Homo sapiens, UniProt Q99616); experiment: Micro-array analysis of chemokine binding peptides: MCP-4; conditions: limit = start of the upper 75% of that peptide's response range
T4 construct: purchased 300-24
T4 sequence (Q99616 17-98): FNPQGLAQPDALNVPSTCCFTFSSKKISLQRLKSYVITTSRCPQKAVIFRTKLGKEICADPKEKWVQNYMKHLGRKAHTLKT
In short: as §1

[7] = target: T5, RANTES (Homo sapiens, UniProt P13501); experiment: Micro-array analysis of chemokine binding peptides: RANTES
T5 construct: purchased 300-06
T5 sequence (P13501 24-91): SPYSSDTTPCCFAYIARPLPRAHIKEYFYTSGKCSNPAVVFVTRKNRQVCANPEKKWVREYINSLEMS
In short: as §1

[8] = target: T6, Eotaxin (Homo sapiens, UniProt P51671); experiment: Micro-array analysis of chemokine binding peptides: Eotaxin; conditions: limit = start of the upper 75% of that peptide's response range
T6 construct: purchased 300-21
In short: as §1

[9] = target: T7, Eotaxin 3 (Homo sapiens, UniProt Q9Y258); experiment: Micro-array analysis of chemokine binding peptides: Eotaxin 3; conditions: limit = start of the upper 75% of that peptide's response range
T7 construct: purchased 300-48
T7 sequence (Q9Y258 24-94): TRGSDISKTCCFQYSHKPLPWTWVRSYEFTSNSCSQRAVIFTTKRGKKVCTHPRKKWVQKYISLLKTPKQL
In short: as §1

[10] = target: T8, SDF1-α (Homo sapiens, UniProt P48061); experiment: Micro-array analysis of chemokine binding peptides: SDF1-α
T8 construct: purchased 300-28a
T8 sequence (P48061 22-89 limits assumed): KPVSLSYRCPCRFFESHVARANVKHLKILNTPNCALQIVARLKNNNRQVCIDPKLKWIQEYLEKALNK
Description: as §2, §3, §4, §5, §6, §7, §8, §9, §10, §11, §12

[11] = target: T9, SDF1-β (Homo sapiens, UniProt P48061); experiment: Micro-array analysis of chemokine binding peptides: SDF1-β
T9 construct: purchased 300-28b
T9 sequence (P48061 22-93): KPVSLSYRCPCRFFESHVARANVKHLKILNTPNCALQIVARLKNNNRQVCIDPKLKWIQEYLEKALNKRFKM
In short: as §1

[12] = target: T10, TECK (Homo sapiens, UniProt O15444); experiment: Micro-array analysis of chemokine binding peptides: TECK
T10 construct: purchased 300-45
T10 sequence (O15444 24-150): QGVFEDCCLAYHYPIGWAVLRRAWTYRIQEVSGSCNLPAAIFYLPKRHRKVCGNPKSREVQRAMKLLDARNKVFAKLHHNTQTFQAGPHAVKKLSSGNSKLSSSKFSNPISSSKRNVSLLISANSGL
In short: as §1

[13] = target: T11, Fractalkine (Homo sapiens, UniProt P78423); experiment: Micro-array analysis of chemokine binding peptides: Fractalkine
T11 construct: purchased 300-31
T11 sequence (P78423 25-100 limits assumed): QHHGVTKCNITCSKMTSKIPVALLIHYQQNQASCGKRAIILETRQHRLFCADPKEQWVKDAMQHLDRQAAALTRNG
In short: as §1

[14] = target: T12, MIP3-α (Homo sapiens, UniProt P78556); experiment: Micro-array analysis of chemokine binding peptides: MIP3-α
T12 construct: purchased 300-29A
T12 sequence (P78556 27-96): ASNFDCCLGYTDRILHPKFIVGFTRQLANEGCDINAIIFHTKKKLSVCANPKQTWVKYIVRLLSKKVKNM
Description: as §2, with “use. […]” for “use.”
as §12

[15] = target: T13, Exodus-2 (Homo sapiens, UniProt O00585); experiment: Micro-array analysis of chemokine binding peptides: Exodus-2
T13 construct: purchased 300-35
T13 sequence (O00585 24-134): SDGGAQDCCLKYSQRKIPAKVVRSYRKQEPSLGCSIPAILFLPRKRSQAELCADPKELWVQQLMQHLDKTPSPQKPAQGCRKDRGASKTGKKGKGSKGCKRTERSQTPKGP
In short: as §1

[16] = test system: SDF1; experiment: Micro-array analysis of chemokine binding peptides: SDF1 (isoform not given)
Sequence of SDF1 (P48061 22-89 limits assumed): as the sequence (P48061 22-89 limits assumed) above
Description: as §2, §3, §4, §5, §6, §7, §8, §9, §10, §11, §12

Row | binding to IL-8 with relatively high affinity (Relative Fluorescence Units) [2] | binding to Mig with relatively high affinity (Relative Fluorescence Units) [3] | binding to I-309 with relatively high affinity (Relative Fluorescence Units) [4] | binding to MCP-1 with relatively high affinity (Relative Fluorescence Units) [5] | binding to MCP-4 with relatively high affinity (Relative Fluorescence Units) [6] | binding to RANTES, stated in words [7] | binding to RANTES with relatively high affinity (Relative Fluorescence Units) ([7]; limit = start of the upper 75% of that peptide's response range) | binding to Eotaxin with relatively high affinity (Relative Fluorescence Units) [8] | binding to Eotaxin 3 with relatively high affinity (Relative Fluorescence Units) [9] | binding to SDF1-α, stated in words [10] | binding to SDF1-β, stated in words [11] | binding to TECK, stated in words [12] | binding to Fractalkine, stated in words [13] | binding to Fractalkine, stated in words ([13]; listed as P5) | binding to MIP3-α, stated in words [14] | binding to Exodus-2, stated in words [15] | binding to SDF1 (isoform not given), stated in words [16] | Substance | physiological or behavioral effect on healthy rats [1]
1 |  |  |  |  |  |  |  |  |  |  |  |  |  |  |  |  |  | WVFGSGLCK [Ph-p15, WVFGSGLCK] | no apparent effect; also recorded: no obvious physiological or behavioral effect
2 | > 2,500 RFU | > 2,500 RFU | > 2,500 RFU | > 2,500 RFU | > 2,500 RFU | bound specifically and differentially | > 2,500 RFU | > 2,500 RFU | > 2,500 RFU | bound | bound | bound | bound | bound specifically and differentially | bound | bound | bound specifically and differentially | LFGNDCE [CBP5] | 
